Measured values as given in patent publication US8877192B2, “Rage fusion proteins and methods of use” (TransTech Pharma, LLC, priority 2004, dated 2014).
Like-named read-outs stand apart in the source and are kept apart here.

Legend:
[1] = cited from earlier work
[2] = listed as human sRAGE; cited from earlier work
amphoterin (Ampho) = target: T1, amphoterin (Ampho) (Homo sapiens, UniProt P09429); experiment: In vitro ligand binding (ELISA) to immobilized amphoterin; conditions: increasing dilutions of fusion protein; FIG. 7
T1 sequence (P09429 1-215): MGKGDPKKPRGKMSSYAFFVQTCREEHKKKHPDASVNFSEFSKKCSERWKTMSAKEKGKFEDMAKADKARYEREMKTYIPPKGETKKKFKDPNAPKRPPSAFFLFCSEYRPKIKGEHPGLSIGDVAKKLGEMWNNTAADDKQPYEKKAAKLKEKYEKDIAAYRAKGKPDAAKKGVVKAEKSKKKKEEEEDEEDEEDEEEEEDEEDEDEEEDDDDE
Protocol: (§1) For example, the RAGE fusion protein may be used in a binding assay to identify potential RAGE ligands. In one example embodiment of such a binding assay, a known RAGE ligand may coated onto a solid substrate (e.g., Maxisorb plates) at a concentration of about 5 micrograms per well, where each well contains a total volume of about 100 microliters (μL). The plates may be incubated at 4° C. overnight to allow the ligand to absorb. Alternatively, shorter incubation periods at higher temperature (e.g., room temperature) may be used. […] The fusion protein bound to the immobilized ligand may be detected in a variety of ways. […] The bound complex may be detected by adding the alkaline phosphatase substrate, para-nitrophenylphosphate (PNPP), and measuring conversion of PNPP to para-nitrophenol (PNP) as an increase in absorbance at 405 nm. […] Binding was detected by the addition of an immunodetection complex containing a monoclonal mouse anti-human IgG1 diluted 1:11,000 to a final assay concentration (FAC) of 21 ng/100 μL, a biotinylated goat anti-mouse IgG diluted 1:500, to a FAC of […], and an avidin-linked alkaline phosphatase. […] Binding of the complex to the immobilized fusion protein was quantified by measuring conversion of PNPP to para-nitrophenol (PNP) which was measured spectrophotometrically at 405 nm. […]

S100b (S100) = target: T2, S100b (S100) (Homo sapiens, UniProt P04271); experiment: In vitro ligand binding (ELISA) to immobilized S100b; conditions: increasing dilutions of fusion protein; FIG. 7
T2 sequence (P04271 1-92): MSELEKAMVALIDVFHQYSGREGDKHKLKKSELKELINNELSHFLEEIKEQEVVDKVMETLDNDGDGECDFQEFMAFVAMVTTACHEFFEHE
Protocol: as §1

amyloid-beta (Abeta) = target: T3, amyloid-beta (Abeta) (Homo sapiens, UniProt P05067); experiment: In vitro ligand binding (ELISA) to immobilized amyloid-beta; conditions: increasing dilutions of fusion protein; FIG. 7
T3 construct: Amyloid Beta (1-40) from Biosource; purchased Biosource
Protocol: as §1

[3] = system: transgenic mice expressing the human Swedish mutant amyloid precursor protein (APP); experiment: Mouse model of AD (APP transgenic mice); assay type: in vivo; conditions: treated for 3 months, versus vehicle and human IgG1
Protocol: Experiments were performed to evaluate whether TTP-4000 could affect amyloid formation and cognitive dysfunction in a mouse model of AD. The experiments utilized transgenic mice expressing the human Swedish mutant amyloid precursor protein (APP) under the control of the PDGF-B chain promoter. Over time, these mice generate high levels of the RAGE ligand, amyloid beta (Aβ).
The APP mice (male) used in this experiment were designed by microinjection of the human APP gene (with the Swedish and London mutations) into mouse eggs under the control of the platelet-derived growth factor B (PDGF-B) chain gene promoter. The mice were generated on a C57BL/6 background and were developed by Molecular Therapeutics Inc. Animals were fed ad libitum and maintained by brother sister mating. The mice generated from this construct develop amyloid deposits starting at 6 months of age. Animals were aged for 6 months and then maintained for 90 days and sacrificed for amyloid quantification.
APP transgenic mice were administered vehicle or TTP4000 every other day [qod (i.p.)] for 90 days starting at 6 months of age. At the end of the experiment, animals were sacrificed and examined for Aβ plaque burden in the brain (i.e., plaque number). A 6-month control APP group was used to determine the baseline of amyloid deposits. In addition, at the end of the study, the animals were subjected to behavioral (Morris water maze) analysis. The investigators were blinded to the study compounds. Samples were given to the mice at 0.25 ml/mouse/every other day.
For histological examination, the animals were anesthetized with an intraperitoneal injection (IP) of sodium pentobarbital (50 mg/kg). The animals were transcardially perfused with 4° C., phosphate-buffered saline (PBS) followed by 4% paraformaldehyde. The brains were removed and placed in 4% paraformaldehyde over night. The brains were processed to paraffin and embedded. Ten serial 30-μm thick sections through the brain were obtained. Sections were subjected to primary antibody overnight at 4° C. (Aβ peptide antibody) in order to detect the amyloid deposits in the brain of the transgenic animals (Guo et al., J. Neurosci., 22:5900-5909 (2002)). Sections were washed in Tris-buffered saline (TBS) and secondary antibody was added and incubated for 1 hour at room temperature. After washing, the sections were incubated as instructed in the Vector ABC Elite kit (Vector Laboratories) and stained with […] (DAB). The reactions were stopped in water and cover-slipped after treatment with xylene. The amyloid area in each section was determined with a computer-assisted image analysis system, consisting of a Power Macintosh computer equipped with a Quick Capture frame grabber card, Hitachi CCD camera mounted on an Olympus microscope and camera stand. NIH Image Analysis Software, v. 1.55 was used. The images were captured and the total area of amyloid was determined over the ten sections. A single operator blinded to treatment status performed all measurements. Summing the amyloid volumes of the sections and dividing by the total number of sections was done to calculate the amyloid volume.
For quantitative analysis, an enzyme-linked immunosorbent assay (ELISA) was used to measure the levels of human total Aβ, Aβtotal and Aβ1-42 in the brains of APP transgenic mice (Biosource International, Camarillo, Calif.). Aβtotal and Aβ1-42 were extracted from mouse brains by guanidine hydrochloride and quantified as described by the manufacturer. […]

T3 sequence (P05067 672-711 limits assumed): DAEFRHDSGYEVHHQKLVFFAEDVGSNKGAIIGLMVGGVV

sRAGE: soluble RAGE: the RAGE protein that does not include the transmembrane region or the cytoplasmic tail
half-life ([1]; assessed by retention of immunoreactivity sRAGE): less than 2 hours | half-life in plasma [2]: about 2 hours

B1: rodent sRAGE: rodent soluble RAGE, literature half-life comparator (protein, UniProt Q63495 23-341, looked up)
extracellular domain: GQNITARIGEPLMLSCKGAPKKPTQKLEWKLNTGRTEAWKVLSPQGDPWDSVARILPNGSLLLPAIGIVDEGTFRCRATNRLGKEVKSNYRVRVYQIPGKPEIVNPASELTANVPNKVGTCVSEGSYPAGTLSWHLDGKPLIPDGKGTVVKEETRRHPETGLFTLRSELTVTPAQGGTTPTYSCSFSLGLPRRRPLNTAPIQPRVREPLPPEGIQLLVEPEGGTVAPGGTVTLTCAISAQPPPQIHWIKDGTPLPLAPSPVLLLPEVGHEDEGIYSCVATHPSHGPQESPPVNIRVTETGDEGQAAGSVDGSGLGTLAL
modifications: extracellular domain
notes: rodent soluble RAGE, literature half-life comparator
half-life ([1]; in normal and diabetic rats): approximately 20 hours

B2: TTP-3000: three domain RAGE fusion protein (SEQ ID NO: 35): human RAGE amino acids 1-136 linked to CH2 and CH3 domains of human IgG (protein)
chain: MAAGTAVGAWVLVLSLWGAVVGAQNITARIGEPLVLKCKGAPKKPPQRLEWKLNTGRTEAWKVLSPQGGGPWDSVARVLPNGSLFLPAVGIQDEGIFRCQAMNRNGKETKSNYRVRVYQIPGKPEIVDSASELTAGPSVFLFPPKPKDTLMISRTPEVTCVVVDVSHEDPEVKFNWYVDGVEVHNAKTKPREEQYNSTYRVVSVLTVLHQDWLNGKEYKCKVSNKALPAPIEKTISKAKGQPREPQVYTLPPSRDELTKNQVSLTCLVKGFYPSDIAVEWESNGQPENNYKTTPPVLDSDGSFFLYSKLTVDKSRWQQGNVFSCSVMHEALHNHYTQKSLSLSPGK
binding to immobilized amphoterin (absorbance at 405 nm) (amphoterin (Ampho)): specifically interact | binding to immobilized S100b (absorbance at 405 nm) (S100b (S100)): specifically interact | binding to immobilized amyloid-beta (absorbance at 405 nm) (amyloid-beta (Abeta)): specifically interact

B3: mouse sRAGE: mouse soluble RAGE used as comparator in the AD mouse model (protein, UniProt Q62151 23-340, looked up)
extracellular domain: GQNITARIGEPLVLSCKGAPKKPPQQLEWKLNTGRTEAWKVLSPQGGPWDSVARILPNGSLLLPATGIVDEGTFRCRATNRRGKEVKSNYRVRVYQIPGKPEIVDPASELTASVPNKVGTCVSEGSYPAGTLSWHLDGKLLIPDGKETLVKEETRRHPETGLFTLRSELTVIPTQGGTHPTFSCSFSLGLPRRRPLNTAPIQLRVREPGPPEGIQLLVEPEGGIVAPGGTVTLTCAISAQPPPQVHWIKDGAPLPLAPSPVLLLPEVGHEDEGTYSCVATHPSHGPQESPPVSIRVTETGDEGPAEGSVGESGLGTLA
modifications: extracellular domain
notes: mouse soluble RAGE used as comparator in the AD mouse model
Aβ plaques in the brain ([3]; FIG. 14A): fewer Aβ plaques | cognitive dysfunction (Morris water maze) ([3]; FIG. 14B): less cognitive dysfunction
